# Results: patent US9957299B2, “Peptidomimetic macrocycles” (AILERON THERAPEUTICS, INC., priority 2010, dated 2018)
# Numbered stars: 1 amine (or outer) side, 2 acyl side, 3 side chain; on linkers, the order of the positions; unused ones are H or OH. Bridge positions count the residues as written; N and C are the ends. Square brackets hold non-standard residues; d marks the D form. Peptide text beside a SMILES is read from it. Trp(6-Cl) = N[C@@H](Cc1c[nH]c2cc(Cl)ccc12)C(=O)O; X3 = C=CCCCC(CCCC=C)(N[*:1])C(=O)[*:2]; R8 = C=CCCCCCC[C@@](C)(N)C(=O)O; S8 = C=CCCCCCC[C@](C)(N)C(=O)O; S5 = C=CCCC[C@](C)(N)C(=O)O; Nle = CCCC[C@H](N)C(=O)O; Ac3c = NC1(C(=O)O)CC1; Aib = CC(C)(N)C(=O)O
# Test system: not listed separately
# Test: circular dichroism
# Settings: aqueous, '0% TFE' (buffer not stated; general: 50 mM potassium phosphate pH 7 or water); pH ns; ns °C; 25-50 uM (general text)
row,Compound,helicity [%]
1,CC(=O)N[C@@H](CC(C)C)C(=O)N[C@H](C(=O)N[C@@H](Cc1ccccc1)C(=O)N[C@]1(C)CCCCCCCCCCC[C@@](C)(C(=O)N[C@@H](CO)C(=O)N[C@@H](C)C(N)=O)NC(=O)[C@H](CC(C)C)NC(=O)[C@H](CCC(N)=O)NC(=O)[C@H](C)NC(=O)[C@H](Cc2c[nH]c3ccccc23)NC(=O)[C@H](Cc2ccc(O)cc2)NC(=O)[C@H](Cc2c[nH]cn2)NC1=O)[C@@H](C)O,78.4
2,CSCC[C@H](NC(=O)[C@H](Cc1ccccc1)NC(C)=O)C(=O)NC(C)(C)C(=O)N[C@@H](Cc1ccc(O)cc1)C(=O)N[C@@H](Cc1c[nH]c2cc(Cl)ccc12)C(=O)N[C@@H](CCC(=O)O)C(=O)NC1(C(=O)N[C@@H](CC(C)C)C(N)=O)CC1 (Ac-FM[Aib]Y[Trp(6-Cl)]E[Ac3c]L-NH2),-3.6
3,CC(=O)N[C@@H](CC(C)C)C(=O)N[C@H](C(=O)N[C@@H](Cc1ccccc1)C(=O)N[C@]1(C)CCCCCCCCCCC[C@@](C)(C(=O)N[C@@H](CO)C(N)=O)NC(=O)[C@H](CC(C)C)NC(=O)[C@H](CCC(N)=O)NC(=O)[C@H](C)NC(=O)[C@H](Cc2c[nH]c3cc(Cl)ccc23)NC(=O)[C@H](Cc2ccc(O)cc2)NC(=O)[C@H](Cc2c[nH]cn2)NC1=O)[C@@H](C)O,69.5
4,CCCC[C@H](NC(C)=O)C(=O)N1CCC[C@H]1C(=O)N[C@@H](CCCNC(=N)N)C(=O)N[C@@H](Cc1ccccc1)C(=O)N[C@]1(C)CCCCCCC=CCCC[C@@](C)(C(N)=O)NC(=O)[C@H](CC(C)C)NC(=O)[C@H](CC(C)C)NC(=O)[C@H](CCCNC(=N)N)NC(=O)[C@H](Cc2c[nH]c3ccccc23)NC(=O)[C@H](Cc2ccc(O)cc2)NC(=O)[C@H](CC(N)=O)NC1=O (Ac-[Nle]PRF[R8]NYWRLL[S5]-NH2; staple 5-12),54.4
5,C=CCCCCCC[C@](C)(NC(=O)[C@H](CC(C)C)NC(=O)[C@H](CC(C)C)NC(=O)[C@H](CCCNC(=N)N)NC(=O)[C@H](Cc1c[nH]c2ccccc12)NC(=O)[C@H](CC(C)C)NC(=O)[C@H](CC(N)=O)NC(=O)C(CCCC=C)(CCCC=C)NC(=O)[C@H](Cc1ccccc1)NC(=O)[C@@H](NC(=O)[C@H](CCC(N)=O)NC(=O)[C@](C)(CCCC=C)NC(=O)[C@H](CO)NC(=O)[C@H](CCC(N)=O)NC(C)=O)[C@@H](C)O)C(=O)N[C@@H](CCC(N)=O)C(=O)N[C@@H](CC(N)=O)C(N)=O (Ac-QS[S5]QTF[X3]NLWRLL[S8]QN-NH2),99
6,CC(=O)N[C@@H](CCC(N)=O)C(=O)N[C@@H](CO)C(=O)N[C@@H](CCC(N)=O)C(=O)N[C@@H](CCC(N)=O)C(=O)N[C@H](C(=O)N[C@@H](Cc1ccccc1)C(=O)N[C@]1(C)CCCCCCC=CCCC[C@@](C)(C(=O)N[C@@H](CCC(N)=O)C(N)=O)NC(=O)[C@H](CC(C)C)NC(=O)[C@H](CC(C)C)NC(=O)[C@H](CCCNC(=N)N)NC(=O)[C@H](Cc2c[nH]c3ccccc23)NC(=O)[C@H](CC(C)C)NC(=O)[C@H](CC(N)=O)NC1=O)[C@@H](C)O (Ac-QSQQTF[R8]NLWRLL[S5]Q-NH2; staple 7-14),77.8

# Molecular target: HDM2 (Homo sapiens, UniProt Q00987)
# Test: FP Competition Blinding Assay | HDM2 IC50 (nM)
# Settings: not given
# HDM2, sequence (Q00987 whole entry, looked up): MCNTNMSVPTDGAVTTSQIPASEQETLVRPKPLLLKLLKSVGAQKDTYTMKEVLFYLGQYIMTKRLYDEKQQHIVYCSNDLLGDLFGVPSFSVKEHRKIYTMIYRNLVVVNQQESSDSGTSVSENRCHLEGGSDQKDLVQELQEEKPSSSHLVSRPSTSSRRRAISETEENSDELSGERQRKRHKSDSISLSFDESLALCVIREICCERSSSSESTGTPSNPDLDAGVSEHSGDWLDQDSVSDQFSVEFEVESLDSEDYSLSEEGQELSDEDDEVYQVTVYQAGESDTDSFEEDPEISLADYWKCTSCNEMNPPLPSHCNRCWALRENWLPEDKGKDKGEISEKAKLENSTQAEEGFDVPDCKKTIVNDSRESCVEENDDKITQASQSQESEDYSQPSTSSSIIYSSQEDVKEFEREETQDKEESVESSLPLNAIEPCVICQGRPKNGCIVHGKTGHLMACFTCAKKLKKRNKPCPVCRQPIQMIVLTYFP
row,IC50 [nM],Compound
1,185,"CC(=O)N[C@@H](Cc1c[nH]c2ccccc12)C(=O)N[C@H](C(=O)N[C@@H](Cc1ccccc1)C(=O)N[C@]1(C)CCCCCCC=CCCC[C@@](C)(C(=O)N[C@@H](CO)C(N)=O)NC(=O)[C@H](CC(C)C)NC(=O)[C@H](CCC(N)=O)NC(=O)[C@H](C)NC(=O)[C@H](Cc2c[nH]c3ccccc23)NC(=O)[C@H](Cc2ccc(O)cc2)NC(=O)[C@H](Cc2c[nH]cn2)NC1=O)[C@@H](C)O [SP-256, Ac- W T F $r8 H Y W A Q L $ S -NH2] (Ac-WTF[R8]HYWAQL[S5]S-NH2; staple 4-11)"
2,90,"CC(=O)N[C@@H](CC(C)C)C(=O)N[C@H](C(=O)N[C@@H](Cc1ccccc1)C(=O)N[C@]1(C)CCCCCCC=CCCC[C@@](C)(C(=O)N[C@@H](CO)C(N)=O)NC(=O)[C@H](CC(C)C)NC(=O)[C@H](CCC(N)=O)NC(=O)[C@H](CO)NC(=O)[C@H](Cc2c[nH]c3ccccc23)NC(=O)[C@H](Cc2ccc(O)cc2)NC(=O)[C@H](C)NC1=O)[C@@H](C)O [SP-360, Ac- L T F $r8 A Y W S Q L $ S -NH2] (Ac-LTF[R8]AYWSQL[S5]S-NH2; staple 4-11)"
